In this experiment the target is LFA-1 (lymphocyte function-associated antigen-1), purified heterodimer captured on ELISA plates (human) (UniProt P20701). Description: competition ELISA (LFA-1/ICAM-1-Ig). The following applies: ligand.

In general, IC50 refers to the concentration that inhibits the measured activity by half. Lower therefore signals inhibition by little substance.

Chain of LFA-1 (lymphocyte function-associated antigen-1), purified heterodimer captured on ELISA plates (human) (P20701 26-1170, chain 1 of 2): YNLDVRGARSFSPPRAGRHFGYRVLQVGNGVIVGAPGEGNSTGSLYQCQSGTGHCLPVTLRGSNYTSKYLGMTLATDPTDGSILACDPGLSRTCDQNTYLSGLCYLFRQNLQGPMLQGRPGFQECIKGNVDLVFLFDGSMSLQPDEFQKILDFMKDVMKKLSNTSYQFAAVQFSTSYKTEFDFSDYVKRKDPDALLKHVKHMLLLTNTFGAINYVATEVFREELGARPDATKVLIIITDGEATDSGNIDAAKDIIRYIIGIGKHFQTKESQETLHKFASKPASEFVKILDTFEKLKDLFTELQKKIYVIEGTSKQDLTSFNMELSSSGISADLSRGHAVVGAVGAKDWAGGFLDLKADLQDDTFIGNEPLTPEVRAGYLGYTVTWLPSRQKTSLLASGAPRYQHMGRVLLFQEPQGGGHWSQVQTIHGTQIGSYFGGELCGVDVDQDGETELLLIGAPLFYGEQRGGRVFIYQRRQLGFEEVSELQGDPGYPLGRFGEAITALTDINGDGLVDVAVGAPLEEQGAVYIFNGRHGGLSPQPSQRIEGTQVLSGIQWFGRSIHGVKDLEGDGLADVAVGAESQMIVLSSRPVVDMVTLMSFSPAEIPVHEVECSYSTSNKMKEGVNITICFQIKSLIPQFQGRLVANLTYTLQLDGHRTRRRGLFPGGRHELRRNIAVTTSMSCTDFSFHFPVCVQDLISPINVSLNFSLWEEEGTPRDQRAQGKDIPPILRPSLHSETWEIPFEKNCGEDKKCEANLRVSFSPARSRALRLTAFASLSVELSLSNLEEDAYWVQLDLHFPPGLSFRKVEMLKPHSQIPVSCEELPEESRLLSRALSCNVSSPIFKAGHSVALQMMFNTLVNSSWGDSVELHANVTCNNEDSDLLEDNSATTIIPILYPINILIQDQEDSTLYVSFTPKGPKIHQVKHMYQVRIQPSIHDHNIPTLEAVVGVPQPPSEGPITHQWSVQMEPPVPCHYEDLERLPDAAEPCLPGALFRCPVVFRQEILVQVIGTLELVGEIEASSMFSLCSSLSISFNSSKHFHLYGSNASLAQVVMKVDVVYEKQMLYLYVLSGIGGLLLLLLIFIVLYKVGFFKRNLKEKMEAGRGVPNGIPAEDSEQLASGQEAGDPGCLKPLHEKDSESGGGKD
Chain of LFA-1 (lymphocyte function-associated antigen-1), purified heterodimer captured on ELISA plates (human) (P05107 23-769, chain 2 of 2, further chain): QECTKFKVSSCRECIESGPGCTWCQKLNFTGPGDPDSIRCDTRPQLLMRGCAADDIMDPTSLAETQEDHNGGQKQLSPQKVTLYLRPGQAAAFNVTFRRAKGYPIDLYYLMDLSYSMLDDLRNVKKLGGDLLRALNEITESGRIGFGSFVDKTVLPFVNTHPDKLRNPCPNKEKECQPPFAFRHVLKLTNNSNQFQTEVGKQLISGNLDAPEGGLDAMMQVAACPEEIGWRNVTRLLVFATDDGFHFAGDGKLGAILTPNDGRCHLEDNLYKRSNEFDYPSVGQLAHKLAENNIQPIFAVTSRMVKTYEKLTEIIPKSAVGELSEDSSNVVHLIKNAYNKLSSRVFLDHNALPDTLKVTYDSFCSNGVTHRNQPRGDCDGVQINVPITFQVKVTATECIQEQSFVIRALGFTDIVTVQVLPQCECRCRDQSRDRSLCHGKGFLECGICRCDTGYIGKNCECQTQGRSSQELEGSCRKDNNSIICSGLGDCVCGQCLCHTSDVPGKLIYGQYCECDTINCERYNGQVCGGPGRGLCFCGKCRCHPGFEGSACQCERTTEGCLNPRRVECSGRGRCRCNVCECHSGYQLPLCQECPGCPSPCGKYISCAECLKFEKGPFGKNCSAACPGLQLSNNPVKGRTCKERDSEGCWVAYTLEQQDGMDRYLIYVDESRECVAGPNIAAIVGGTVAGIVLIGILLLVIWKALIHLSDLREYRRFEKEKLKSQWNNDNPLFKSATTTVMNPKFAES
Chain of sICAM-1 (soluble ICAM-1) (P05362 28-480): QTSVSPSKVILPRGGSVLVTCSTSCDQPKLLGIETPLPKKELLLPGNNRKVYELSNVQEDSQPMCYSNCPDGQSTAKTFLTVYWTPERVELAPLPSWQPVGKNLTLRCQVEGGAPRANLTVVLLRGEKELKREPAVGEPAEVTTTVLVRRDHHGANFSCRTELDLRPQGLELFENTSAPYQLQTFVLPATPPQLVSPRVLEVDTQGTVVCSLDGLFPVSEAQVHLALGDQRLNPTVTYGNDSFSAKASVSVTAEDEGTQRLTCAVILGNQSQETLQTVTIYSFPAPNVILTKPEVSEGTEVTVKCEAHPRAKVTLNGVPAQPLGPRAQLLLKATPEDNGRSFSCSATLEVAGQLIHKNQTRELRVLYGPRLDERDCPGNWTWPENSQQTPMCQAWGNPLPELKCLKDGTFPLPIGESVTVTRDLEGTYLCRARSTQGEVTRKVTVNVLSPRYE

The substance “sICAM-1 (soluble ICAM-1) (from UniProt P05362 28-480)” returned an IC50 of 0.29 µM.

Source of the values: US20090155176A1.
